Data: the nanobody polyreactivity screen of Harvey et al. (2022)

Test: yeast display, Sf9 membrane polyspecificity reagent, FACS + sequencing; frameworks hold sequencing errors
Procedure, shortened: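 Galactose induction of a Saccharomyces cerevisiae BJ5465 synthetic nanobody display library ran 36–48 hours. The cells were then stained for 1 hour at 4 °C with 10% biotinylated, detergent-solubilized Sf9 membrane reagent, pulled down on streptavidin microbeads and FACS-sorted into low and high (top ~1%) gates on expression and reagent-binding fluorescence. Labels for polyreactivity follow the gate of origin.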

| Sequence | polyreactivity (PSR sort gate) |
| --- | --- |
| QVQLVESGGGLVQAGGSLRLSCAASGSIFDNNAMGWYRQAPGKERELVAAISRSGGSTYYADSVKGRFTISRDNAKNTVYLQMNSLKPDDTAVYYCAALPSRPRGYDYWGQGTQVTVSS | high polyreactivity |
| QVQLVESGGGLVQAGGSLRLSCAASGRIFDRYAIGWYRHAPGKERELVAAITSGGDTNYADSVKGRFTISRDNAKITVYLPKNSLKPEDTAVYYCNTRLVLGGGRRHDYWGQGTQVTVSS | low polyreactivity |
| QVQLVESGGGLVQAGGSLRLSSAASGRIFRPYDMGWYRQAPGKERELVAAITQSGGITSYADSVKGRFTISRDNAMNTVYLQMNSLTPEDTAVYYCASTSRYTRSHYDWYDYWGQGTQVTVSS | low polyreactivity |
| QVQLVESGGGLVQAGGSLRLSCAASGFTFGYNDMGWYRQATGKVRELVAGIRSGDDTNYADSVKGRFTISRDNAKNTVYLQMNSLKPEDTAVYYCAVGYGDYLYYDYDYWGQGTQVTVSS | low polyreactivity |
| QVQLVESGGGLVQAGGSLRLSCAASGSIFYRNAMGWYRQAPGKERELVAAITSSGGSTYYADSVKGRFTISRDNAKYTVYFQMNSLKPEDTAVYYCNSVVTKFAKCRFLYYYWGQGTQVTVSS | high polyreactivity |
| QVQLVESGGGLVQAGGSLRLSCAASGRIFRYYAMGWSRQAPGKERELVAAISSSGGSTYYADSVKGRFTISRDNAKNTVYLQMNSLKPEDTAVYYCAGVFRLGVGYEYWGQGTQVTVSS | high polyreactivity |
| QVQLVESGGGLVQAGGSLRLSCAASGIIFRWYAMGWYRQAPGKERELVAAITRSGGSTYYADSVKGRFTISRDNAKNTVYLQMNSLKPEDTAVYYCAAEYYAPSYKFDYWGQGTQVTVSS | high polyreactivity |
| QVQLVESGGGLVQAGGSLRLSCAASGSIIYLYAMGWYRQAPGKERELVAAINDDAGSTYYADSVKGRFTISRDNAKNTVYLQMNSLKPEDTAVYYCNAGSRSTEYDYWGQGTQVTVSS | low polyreactivity |
| QVQLVESGGGLVQAGGSLRLSCAASGLIFVWYAMGWYRQAPGKEREVVAAITSRGGSTYYADSVKGRFTISRDNAKNTVYLQMNSLKPEDTAVYYCAKYVRYDLGDYWGQGTQVTVSS | low polyreactivity |
| QVQLVESGGGLVQAGGSLRLSCAASGRIFTQNAMGWYRQAPGKERELVAAITSGGSTYYADSVKGRFTISRDNAKNTVYLQMNSLKPEDTAVYYCAKRYPYYLSTMEYWGQGTQVTVSS | low polyreactivity |
| QVQLVESGGGLVQAGGSLRLSCAASGFTFAYNAMGWYRQAPGKERELVAAISGRGVSTYYADSVKGRFTISRDNAKNTVYLQMNSLKPEDTAVYYCAKRYRYWTTERYDYWGQGTQVTVSS | high polyreactivity |
| QVHLVESGGGLVQAGGSLRLSCAASGSTFTLNTMGWYRQAPGKERELVAGIRSGGSTYYADSVKGRFTISRDNAKNTVYLQMNSLKPEDTAVYYCAADRRWFAYWFDYWGQGTQVTVSS | low polyreactivity |
| QVQLVESGGGLVQAGGSLRLSCAASGIIFYGYVMGWYRQAPGKERELVATSTSSGGSTYYADSVKGRFTISRDNAKNTGYLQMNSLKPEDTAVYYCAADYDYGAWVRHDYWGQGTQVTVSS | low polyreactivity |
| QVQLVESGGGLVQAGGSLRLSCAASGRIFYNNAMGWYRQAPGKERELVAAITYSGGSTYYADSVKGRFTISRDNAKNTVYLQMNSLKPEDTAVYYCAAEYYGPYSEGGESYDYWGQGTQVTVSS | low polyreactivity |
| QVQLVESGGGLVQAGGSLRLSCAASGSTFYPTAMGWYRQAPGKERELVAAIRVRGGSTYYADSVKGRYTISRDNAKNTVYLKRNCLKPEDTAVYYCNADTFSSFGWGQGTQVTVSS | low polyreactivity |
| QVQLVESGGGLVQAGGSLRLSCAASGRIFYIIAMVWYRQAPGKEWELVASITGSGGRTYYADSVKGRFTISRDNAKNTVYLQMNSLKPEDTAVYYCNADLYVGYLYYLYDYWGQGTQVTVSS | low polyreactivity |
| QVQLVESGGGLVQEGGSLRLSCAASGRTFSYNAMGWYSQAPGKERELFAAITGRGGSTYYADSVKGRFTISRDNAKKTVYLQMNRLKPEVTAVYYCNAVDAGYHRDRDYWGLGTQVTVSS | low polyreactivity |
| QVQLVESGGGLVQAGGSLRLSCAASGITFSSYAMGWYRQAPGKEMELVAAISYGGGNTYYADSVKGRFTISRDNAKNTVYLQMNSLKPEDTSVYYCNTLYTSYSGLDYWGQGTQVTVSS | high polyreactivity |
| QVQLVESGGGLVQEGGSLRLSCAASGFTFRYYTMGWYRQATGKERELVATITWSGGGTYYADSVKGRFTISRDNAKNTVYLQRISLKPVDSAVYYCTAGLFYKAQYGYWGKGTQVTVSS | high polyreactivity |
| QLQLVESGGGLVQAAGSLRLSSAASGSIFPDNAKGWYRQAPAKERELVATITSGGDTNYADSVKGRFTISRDNAKNTVYLQMNSLKPEDTAVYYCAADVYPDWLVKYDYWGQGTQVTVSS | low polyreactivity |
| QVQLVESGGGLVQAGGSLRLSCAASGITIGSNVMGWYRQAPGKERELVAAISQSGGRTYYADSVKGRFTISRDNAKNTVYLQMNSLKPEDTAVYYCAKRQRSFYGRPMGDYWGQGTQVTVSS | high polyreactivity |
| QVQLVESGGGLVQAGRSLRLSCAASGSIISVYAMGLYRQAPGKERELVADITGTGDTYYADSVKGRFTISRDNAKNTVYLQMNSLIPEDTAVYYCNTVYELYYDPSVTEDYWGQGTQVTVSS | low polyreactivity |

| Sequence | polyreactivity (PSR sort gate) |
| --- | --- |
| QVQLVESGGGLVQAGGCLRLSCAASGSIFAPIAMGWYRQAPGKERDLVAAITSGVGSTDYADSVKGRFTISRDNAKNNVYLQMNSLKPEDTAVYYCAADSSYLTYWEYDYWGQGTQVTVSS | low polyreactivity |
| QVQLVESGGGLVQAGGSLRLSCAASGFTFYRNAMGWYRKAPGKERELVAAISWSGDSTYYADSVKGRFTISRDNAKNTVYLQMNSLKPEDTAVYYCAKSRYTALTNHWSHDYWGQGTQVTVSS | low polyreactivity |
| QVQLVESGGGLVQAGGSLRLSCAASGSIFPLYAMGWYRQAPGKERELVADITVSGGSTYNADSVKGRFTISRDNAKNTVYLQMNSLKPEDTAVYYCNADDRSPFPDYWWYPYDYDYWGQGTQVTVSS | low polyreactivity |
| QVQLGESGGGLVQAGGSLRLTCAASGIIFPYYAMGWYRQATGKERELVAGISSSGGITYADSVKGRFTISRDNGKNTVYLQMNSLKPEDTAVYYCNAEYQWLEYDYCGQGTQVTVSS | low polyreactivity |
| QVQLVESGGGLVQAGGSLRLSCAASGLTFALYAMGWYRQAPGQERELVAAIDWSGGITYYADSVKGRFTISRDHAKNTVYLQMNSLKPEDTAVYYCAARPSTFKYKYGYWGQGTQVTVSS | high polyreactivity |
| QVQLVESGGGLVQAGGSLRLSCAASGSIFPHNAMGWYRQAPGKERELVAAITTIGGSTYYADSVKGRFTISRDNAKNTVYLQRNSLKPEDTAVYYCAADCATVLGFYTYDYWGQGTQVTVSS | low polyreactivity |
| QVQLVESGGGLVQAGGSLRLSCAASGSIFSVNTKGWYRQAPGKERELVATIRTGDSTNYADSVKGLFTISRDNAKNTVYLQMNSLKPEDTAFYYCAAEWSSLNFDYWGQGTQVTVSS | low polyreactivity |
| QVQLVESGGGLVQAGGSLRLSCAASGSIFVYYSMGWYRQAPGKERELVATISSGASTYYADSVKGRFTISRDNAKNTVYLQMNSLKPEDTAVYYCNADNLAGSVEHDYWGQGTQVTVSS | low polyreactivity |
| QVQLVESGGGLVQAGGSLRLSFAASGITFGYYDMGWYRQAPGKERELVASISSGGNTNYADSVKGRFTISRDNAKNTVYLQMNSLKPEDTAVYYCNVRYWGFYDYDYWGQGTQVTVSS | low polyreactivity |
| QVQLVESGGGLVQAGGSLRLSCAASGSIFWSNAMGWYRQAPGKERELVAAITWSGGSTYADSVKGRFTISRDNAKNTVYLQMNSLKPEDTAVYYCAAERAILSSDKQSLWRFDYWGQGTQVTVSS | low polyreactivity |
| QVQLVESGGRLVQAGGSLRLSCAASGSIFAVNAMGWYRQAPGKERELVAAIDWSDGITYYADSVKGRFTISRDNAKNTVYLKMNSLKPEDTALNYCAADATAYGWYVEQFSFYDNDYWGQGTQVTVSS | high polyreactivity |
| QVQLVESGGGLVQAGGSLRLSCAASGFTFAHNAMGWYRQAPGKERELVAAITSRGGSTYYADSVKGRFTISRDNAKNTVYLQMNSLKPEDTAVYYCAARGVNRQVFNYWGQGTQVTVSS | high polyreactivity |
| QDQPVESGGGLVQAGGRLRLSCAASGIICSGYAMGWYRQAAGKERELVAAISNDGTRTYYADSVKGRFTISRDNAKNTVYLQMNSLKPEDTAVYYCAAYSRLNVLGYDYWGQGTQVTVSS | high polyreactivity |
| QVQLVESGGGLVQAGGSLRLSCAASGFIFDFYTMGWYRQATGKESELVAAITWSGDSTYYADSVKGRFTISRDNAKNTVYLQMNSLKPEDTAVYYCAADWWGVWYFDYDYWGQGTQVTVSS | low polyreactivity |
| QVQLVESGGGLVQAGGSLRLSCCASGFTVSSYARAWYRQAPGKERELVAAITYRGGSTYYADSVKGRFTISRDNAKNTVFLLMNSLKPEDTAVYYCAARWGYRMYWGQGTQVTVSS | high polyreactivity |
| QVQLVESGGGLVQAGGSLRLSCAASGSTSPFNAMGWYRQAPGKERELVASITSSGSTNYADSVKGLFTISRDNAKYTVYFQMNSLKPEDTAVYYCATEGVVSETIYDYWGQGSQVTVSS | low polyreactivity |
| QVQLVESGGGRVHAGGSHRISCAASGSIFGRYAMGGYRQAPRQDREVVAAISSRGGSTYYADTVKGRFTISRDNAKNTVYLQMTSLKPEDTAFYYCAKENWCTSYYARYDDWGQGTQVTVSS | high polyreactivity |
| QVQLVESGGGLVQAGGSLRLSCAASGSIFSSNAMGWYRQAPGKERELGAAISRSACSTYYADSVKGRFTISRDNAKNTVYLQMNSLKPEDTAVYYCNAVTRLGTYDYWGQGTQVTVSS | high polyreactivity |
| QVQLVESGGGLVQAGGSLRLSCAASGSILDFNAMGWYRQAPGKERELVAAISDSSGSTFYAVSVKGRFTISRDNAKNTVYLLMISLKPEDTAVYYCAARLGFYPYGYTSWYTVYFWGQGTQVTVSS | low polyreactivity |
| QVQLVESGGGLVQAGGSLRLSCAASGSTFTDYTMGWYRQAPGKERELVAVISQSGGSTYYADSVKGRFTISRDNAKNTVYLQMNSLKPEDTAVYYCAADPREDNQDRYYWGQGTQVTVSS | high polyreactivity |
| QVQLVESGGGLVQAGGSLRLSCAASGSIFVPYAMGWYRQAPGKERELVAAINHGGGRTYADSVKGRFTISRDNAKNTVYLQMNSLKPEDTAVYYCAADGAHKFGYYRYYYWGQGTQVTVSS | low polyreactivity |
